According to the DeepSol protein solubility set:

test: soluble on expression in E. coli; label from the status in PepcDB or PDB records

| Sequence | soluble on expression in E. coli |
| --- | --- |
| MMITRELVLKANREQPPYASILALAASGFSLEKSVQFSEKQQLALNLDGELLSNDVEIARIIAQSTDAADSLLGSSIIDFAVVDDLTNFIADAVTKNDYSLLLGKDFPTKILDNSLTVADFAIFSVAHNNPQLKAKFSGIIDKVLKEPTLAAAHNFVGLYKSAAAPTATASTGKEKKKDEGKFVELPGAEKGKVVVRFPPEASGYLHIGHAKAALLNQYYQQAFEGQLIMRFDDTNPAKENAHFEHVIKEDLSMLNIVPDRWTHSSDHFEMLLTMCEKLLKEGKAFVDDTDTETMRNEREQRQDSRNRSNTPEKNLQLWEEMKKGSPKGLTCCVRMKIDMKSNNGAMRDPTIYRCKPEEHVRTGLKYKVYPTYDFTCPIVDSVEGVTHALRTTEYHDRDDQYYFICDALGLRRPHIWEYARLNMTNTVMSKRKLTWFVDEGHVEGWDDPRLPTVRGVMRRGLTVEGLKQFIVAQGGSRSVVMMEWDKIWAFNKKVIDPVAPRYTALDSTSPLVSIELTDSISDDTSNVSLHPKNAEIGSKDVHKGKKLLLEQVDAAALKEGEIVTFVNWGNIKIGKIEKKGAVITKISATLQLDNTDYKKTTKVTWLGDVKAEAGKTIPVVTADYDHIISKAIIGKDEDWKQFINFDSVHYTKMVGEPAIKNVKKGDIIQIQRKGFYIVDQPYNPKSELSGVETPLLLIAIPDGHTGKEAEKPPKGAPVSAAASSGGSDALQLYNSIEQQGGIVRDLKTKDAKSQATKDAIAKLLDLKKKYKELTGSDHKPGAPPSAPAPTTPSSSESNSALNIYNLIEAQGLLVRELKGKDAKSQATKDAIAKLLELKKQYKEVSGSDHKPGVPPAASVASAPAPAPAAGSTNALDIYHQIESQGALVRELKGKDAKSQATKDAIAKLLALKKQYKEVTGSDHKPGVVPVSAPAPTPLAGGADIAGQIEAQGVLVRDLKNKDSKSQETKDAIAKLLELKKNYKEVTGSDYKPGPAPAAAPAKVTVPAPSVSGGDTLSKQIDDQALLVRELKMKDAKSQETKDAIAKLLQLKKQYKDATGSDYKPAPAQLAASAAAAPAPAPAFDEAALLKEIEEQGAVVRDAKSKDPKSQDSADAINKLLALKANFKKATGKDFPAPSNAQSKKGKKK | not soluble |
| MGSDKIHHHHHHMMLGNIAYMNPWWEGKEDYHVKLWKNQKIRWEPNWVREISLKPFSLNFILGPRQVGKTTGIKLLIQKILENNPPESVLYLNLEVLPTYRDLLEIIREFQELKKEERIKTGYIFLDEASSLEGWWRGIKPLIDAGLLENDVVTVTGSSSLRVRRDIEMFPGRRGEGKTLEIMPLSFPEYIKVMGLKKHRLESTKVLKLFDKYIQTGGFPGSINGFPMEDLLGAYIGEFVRFGKSLEIAKETLAALIRSAPSATSFRALAEMTSGYSYKVIQDYIEFFRDIYILGIAYLKEDNQVMYRREKKFFFRDPLLARLFSLWSGVEVREDALYEWIVQEHVFRRFGEVYYFRNSYEVDVIADNLKIEVKAGKAHRKYPRGVLVLEKDDIPFFLIEYYWTGLK | not soluble |
| MDIQLVADGLQFPEGPIAMADGSVILTEIQGQRLTRVWPDGRKETVAETGGGPNGAAIGPDGAIYVTNNGGSFQFFEANGLNIPGPTPPTHTGGAIQRVDLKTGAITTLYTECDGKPLVGPNDLVFDKQGGFWFTDHGCSTPDGRKYGALYYALPDGSKITRWRDHFVSPNGVGLSPDEKTVYMADTMLGRLWSFDVASPGVLADAVPLLPGNVVCNLPGYQLLDSLAVEADGKVCVATIINGGITAFAPDGSTEHYAFPDVIVTNICFGGADMRDAWITASGTGKLYKARWPRPGLKLNFNGLEHHHHHH | soluble |
| MNKPTLGIDLDTTLNTLDREWVKRYNEIYKDKLLPSDIKGWDIENYVKPECGKKIYDILKEPHFFRNLGVQPFAETALEELTSIFNIYIVSATHYKVCEDKGNWIKEKFPFISYQNIIFCHNKGLVHLDILIDDNPLNLENFKGNKILFDAHHNKSENRFVRARDWYEAKALCESLKDFL | not soluble |
| AQGQQGQVRLLCNTAALTEYLPELLASYLAENPGVSVDVQELPSLRIVQAITQGMADLGIVSTAAPSEHLQTRPFRDDPLVLVTPQAHPLASALAPSFVDSLAHGYVGLGAGSALGLYLEEQALHEGQRMQVRVRAEGFDGV | not soluble |
| MRGFAQVWHGLREKKRAECTPLNAFLTYVTLPWNSILNDLLSERQKRPILTFEFDAPAHNHD | not soluble |
| MAHHHHHHMLSTTDGTTSTLSPERTAVIELHTSASYARDTVHRLREYCNSLEATRQQLRRRLSSVPNSHNVSAVALSRARSPSSLSHLHGQAPLPPLAAAAPTLSRPFFTSEYIDPEVDATLQDVDETTALETMIVLHEDGAGTITKRMIDGSQSCISSLAVHSSSPQSQRPAATTASLLAIHSPTPVAENGTSWARQYSPLALRRMKPQQLLSHYLRDTHNAMVIADEPRAHRHSSSLCTNASSSCCVPVVRLGKPMRSASASLWNASDVNMHFPHAVPLAPSLSESPPKQAPSTGRFVVPPATPLDESDAEQLPPQSLPPRPNNHKTTAGASVFVSLAGCTAPGQFAGLQTGVTSSTMGASSRVNSQRFAMKGLRESVSPKEHGTRSRSKSSRSSAGSEALVSGKQTTSSASAAAASAPLWDPTRHSLQSPSPVMLSTSTETSAASALVVSDRLGTPVTTSGCEVGVPGASNDSVHRPRPIGTSLITAVASTSFSPLSAPAPDSEEPQPPAETAVQPHIRSPLRRLHLEAHAVRCDHASSGNRRDLYTDSLHVSGSASPAPSTPRNSEENSGDRCKRSNTTAFLDEEKREASAVSTAGACRVSAQLPVLESDVVSPDGADSFHSKDAAVSPRRSSERTVNFLSPDQVEGSLLPQPQRPTSQRLISPSPPRGVAADSNEQNPRDGNTDLKAVSAESIPKDADIDSTSPRRHLVLPQHRSPVAPPRVVIISKDDESPSPARSSLSRSLHSLPSTLSDGHCDDASDDGDDEDGSLWYSEQF | not soluble |
| GSADAEYDVVVLGGGPGGYSAAFAAADEGLKVAIVERYKTLGGVCLNVGCIPSKALLHNAAVIDEVRHLAANGIKYPEPELDIDMLRAYKDGVVSRLTGGLAGMAKSRKVDVIQGDGQFLDPHHLEVSLTAGDAYEQAAPTGEKKIVAFKNCIIAAGSRVTKLPFIPEDPRIIDSSGALALKEVPGKLLIIGGGIIGLEMGTVYSTLGSRLDVVEMMDGLMQGADRDLVKVWQKQNEYRFDNIMVNTKTVAVEPKEDGVYVTFEGANAPKEPQRYDAVLVAAGRAPNGKLISAEKAGVAVTDRGFIEVDKQMRTNVPHIYAIGDIVGQPMLAHKAVHEGHVAAENCAGHKAYFDARVIPGVAYTSPEVAWVGETELSAKASARKITKANFPWAASGRAIANGCDKPFTKLIFDAETGRIIGGGIVGPNGGDMIGEVCLAIEMGCDAADIGKTIHPHPTLGESIGMAAEVALGTCTDLPPQKK | soluble |
| MGSDKIHHHHHHMKFKTVGNPNGPKILLIHPMFATSECFVNLVEYLKEDYFVITPTLDGHDINENSIFLSVEDEGNKVLAYLKDNSIKELDFMLGTSLGAIIAFEIYKRNEIRINKVYLDGGPFFKFGALLQKVAAKKFCNICSEVRQNPQKAINKIERLFKGLGNEMCEVACHITEESIKNLAHACYSFTLPNLKPVEQKSVVFLYGTKEPARFCIFRLRKYKYSRIIKKNGFSHCGYLLSYPKEYAEMLKENTQ | not soluble |
| MVCWSSHTASKQGNLMNQFYVHVRLFEDTAEQTKKFEELMLNFLYQKTVKESDDSCCRLIPEGYILKSTMNCQQILDQTFSIANSAGVDANIFVCKFEQSACLLPSASLVGNDFVHYDLTPKPIKLDS | not soluble |
| MGSDKIHHHHHHMTTIPSTAEAKLEMLTTINRAIAGSRPEALPPYPVPAPLSRAEILHQFEDRILDYGAAYTHVSAAELPGAIAKALGNARRVIVPAGIPAPWLTVGMDVLRDEPPLSHAELDRADAVLTGCAVAISETGTIILDHRADQGRRALSLIPDFHICVVREDQIVQTVREGVEAVAASVREGRPLTWLSGGSATSDIELVRVEGVHGPRRLQVIVVG | soluble |
| MENKRTLVVALGGNALLKRGEPLEADIQRKNIELAARTIAQLTRQWRVVLVHGNGPQVGLLALQNSAYANVTPYPLDILGAESQGMIGYMLQQALKNHLPEREISVLLTQVEVDANDPAFLNPTKYIGPIYDEAQARALQAEKGWVFKADGNAFRRVVPSPQPKRIVENDAIRALISRDHLVICNGGGGVPVVEKADGYHGIEAVIDKDLSAALLASQIHADALLILTDADAVYLDWGKPTQRPLAQVTPELLREMQFDAGSMGPKVTACAEFVSHCRGIAGIGSLADGQAILAGEKGTLIRCETADVDA | not soluble |
| MGSDKIHHHHHHMPRPYTLFTGQWADLPFEEVARLASGWGYDGLEIAVSGDHLDAWRWDEPGYVQSKLAVLEKYNLKVWAISNHLKGQAVCDDPIDFRHEAIVGSKVWGDGDPEGVRTRAAEEMKHTARLAKALGVDTVVGFTGSSIWQYVAMFPPVPEKVIQAGYQDFADRWNPILDVFDECGVRFAHEVHPSEIAYDYWTTVRTLEAIGHREAFGLNWDPSHFMWQGIDPVSFIWDFKDRIYHVDCKDTKLRPTGRNTVLGSHLPWGDPRRGWDFVSAGRGDVPWESSFRALTAIGYDGPISVEWEDAGMDRLHGAPEALAALKKFDFPASQTSFDAAFSSKD | not soluble |
| MIKIAPSILSADFSKLGEEIKDVEKGGADYIHVDVMDGHFVPNITIGPLIVEAIRPITSLPLDVHLMIENPDNYIPTFAKAGADIITVHVEACPHLHRTIQLIKSHGIKAGVVLNPHTPVSVIEHVLEDIDMVLLMTVNPGFGGQKFIHSVLPKIKQVAEMVKERNLEVEIEVDGGVNAETARLCVEAGANVLVAGSAVYNQKDRGEAIRVIRG | soluble |
| MSLNSNEKMGIFQGKKMKTKIIVIVGPTAVGKTALAIEVAKRFNGEVVSGDSQQVYRGLDIGTAKASPEEQAAVPHHLIDVREITESYSAFDFVSEAKMTIEDIHSRGKLAIIAGGTGLYIQSLLEGYHLGGETPHEEILAYRASLEPYSDEELAHLVEQAGLEIPQFNRRRAMRALEIAHFGQDLENQEILYEPLIICLDDERSQLYERINHRVDLMFEAGLLDEAKWLFDHSPNVQAAKGIGYKELFPYFRGEQTFEEARESLKQATRRFAKRQLTWFRNRMQVTFYQIGESGVQDRILSQIEEFLDDEGHHHHHH | soluble |
| MVAKISVGSSLFGALSYNQNKVDEEQGKVLLSNRMFESEDGNFSIRRCMECFDMHLPADLKTEKPIIHISLNPHPDDVLSDSQLADIAKEYMDKLGYGNQPYMVYKHEDIARHHIHIVSIRVDDTGKKINDKFEHIRSKQITRELEQKYGLHPAEKKQAADRPELKKVDYRAGDVKHQLSNTVKALASSYRFQSFTEYKALLSIYNVQAEEVKGEVNGKPYNGIVYSATNDKGEKQGNPFKSSSLGKSVGYEAIQRHIKKSTKDIQDKNLKERTRRTVGAVMKSAHSRKELEQELKRKGIDVLFRQNDTGRIYGVTFIDHENRTVLNGSRLGKDFSANVFNDLFSGSRTLSGNSKQETQEQKPEYNPTGHLENTGKAIAGLFSLLSGGNDTPPDNSQVPPPKKKKKKKQRRILEHHHHHH | soluble |
| MEKTVNPFRIGIAPISWVNDDIPGLGDHYTQDQVLSEMAELGYVATEMGRLFSQDPPSLRAKLNQYGIELASKFIGVLFSDRSRLEEELETFQSWAEYLHDMGCKYAIVCEMGGSMHWDPRRAPEEKTIQRLTDSEWESLVDGLHRAAHICQELGMKLVYHFHAGTVVETAEEIDRLMELTDPNLVHLLYDTGHALYGGYDPVELLHRYADRIQYVHLKDIRRDVLEQVRREQLDFRTAVLRGMFTVPGDGCIDFVPIFSKLIEMGYNGWIIVEAEQDPAVAHPYTYAKMAKEYIDRLVHHLLAAQKR | not soluble |
| MGHHHHHHSHLKHKMMNYMKDFRMIEDSENPEIVISVGGDGTLLQAFHQYSHMLSKVAFVGVHTGHLGFYADWLPHEVEKLIIEINNSEFQVIEYPLLEIIMRYNDNGYETRYLALNEATMKTENGSTLVVDVNLRGKHFERFRGDGLCVSTPSGSTAYNKALGGALIHPSLEAMQITEIASINNRVFRTVGSPLVLPKHHTCLISPVNHDTIRMTIDHVSIKHKNVNSIQYRVANEKVRFARFRPFPFWKR | not soluble |
